± gives the standard deviation of the averaged measurements.
The sequences below were run on ATP (assay: switch fluorescence ratio, 500 uM ATP over buffer (Cy3 cluster intensity, sum of 5 cycles each) (fold (ratio)); higher = stronger signal-on switching upon ATP binding; sequences stand for … in TCGTCGGCAGCGTCAGATGTGTATAAGAGACAGTTTTTTTTTTTTTTTTTTTTTTTTT…TC). Conditions: aptamer strand: ATP DNA aptamer (quencher-CACCTGGGGGAGTATTGCGGAGGAAGG + anchor), 100 nM annealed; ATP concentration: 500 uM.
Method in brief: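 Five buffer/ATP imaging cycles were run on Cy3-labelled switching-strand clusters on a modified Illumina MiSeq flow-cell, with NaOH stripping and re-annealing between cycles. In each cycle, clusters annealed to 100 nM quencher-labelled ATP aptamer were imaged in selection buffer, then after 15 min with 500 uM ATP at 22 °C. Per cluster, the fluorescence ratio is summed target-cycle over summed buffer-cycle Cy3 intensity, averaged per switch-domain sequence. Only clusters within 100-1000 RFU were kept.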
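Also: ATP exposure 15 min at 22 °C before imaging.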

Row | Sequence | switch fluorescence ratio
1 | AAATTAAATC | 0.993 ± 0.043
2 | AAATTACTAG | 1.01 ± 0.048
3 | AAATTAGATG | 1.009 ± 0.0051
4 | AAATTAGGGA | 0.978 ± 0.046
5 | AAATTCGGGA | 0.9799 ± 0.0032
6 | AAATTCTGCG | 0.941 ± 0.0098
7 | AAATTGCTAG | 0.997 ± 0.032
8 | AAATTGGCAT | 0.993 ± 0.028
9 | AAATTGGGAT | 0.9636 ± 0.0093
10 | AAATTGGGCG | 0.983 ± 0.021
11 | AAATTGGGTA | 0.991 ± 0.024
12 | AAATTTAAAT | 1.02 ± 0.024
13 | AAATTTACAG | 1.03 ± 0.04
14 | AAATTTCATT | 1 ± 0.041
15 | AAATTTGGGC | 0.961 ± 0.02
16 | AAATTTTCC | 1.34 ± 0.065
17 | AACAACTTTT | 1.04 ± 0.042
18 | AACACAGGTA | 1.06 ± 0.013
19 | AACAGCTGTA | 1.05 ± 0.062
20 | AACAGGACAT | 1.06 ± 0.017
21 | AACAGGACGC | 1.08 ± 0.1
22 | AACAGGTGGG | 1.24 ± 0.023
23 | AACAGTCGCG | 0.968 ± 0.024
24 | AACAGTTGTG | 0.976 ± 0.017
25 | AACAGTTTTA | 0.972 ± 0.011

Row | Sequence | switch fluorescence ratio
26 | AACATATGGG | 1 ± 0.012
27 | AACATGGAGG | 0.968 ± 0.031
28 | AACATTAGGC | 1.05 ± 0.039
29 | AACATTTTTC | 1.01 ± 0.021
30 | AACCAAAAAA | 1.01 ± 0.019
31 | AACCAAAGGT | 1.014 ± 0.0017
32 | AACCAATCGT | 1.03 ± 0.041
33 | AACCAGAGTA | 1.011 ± 0.0039
34 | AACCAGCTGG | 1.04 ± 0.03
35 | AACCAGTTAG | 1.01 ± 0.021
36 | AACCCACATC | 1.303 ± 0.002
37 | AACCCGAGCC | 1.196 ± 0.011
38 | AACCGGGGTT | 0.996 ± 0.046
39 | AACCGTTGAC | 1.21 ± 0.02
40 | AACCTCACTC | 1.49 ± 0.13
41 | AACCTCTCGG | 1.033 ± 0.0039
42 | AACCTGCTCG | 1.1 ± 0.02
43 | AACCTGGGTA | 1.008 ± 0.0035
44 | AACCTGTAGG | 0.987 ± 0.021
45 | AACCTTCGTG | 1.62 ± 0.047
46 | AACGAAACTT | 1.123 ± 0.0042
47 | AACGAATTCA | 1.05 ± 0.017
48 | AACGACGATC | 1.11 ± 0.046
49 | AACGACTGGG | 0.997 ± 0.051
50 | AACGAGTCGT | 0.989 ± 0.029

Row | Sequence | switch fluorescence ratio
51 | AACGCAGCCT | 1.11 ± 0.0027
52 | AACGCAGGAG | 1.48 ± 0.025
53 | AACGCCAGGC | 1.01 ± 0.028
54 | AACGCCGCAT | 1.858 ± 0.0036
55 | AACGCTGGGT | 1.0379 ± 0.00084
56 | AACGGAGCTT | 1.47 ± 0.25
57 | AACGGATTCT | 1.04 ± 0.016
58 | AACGGCGCCA | 0.983 ± 0.025
59 | AACGGGAGAT | 0.991 ± 0.048
60 | AACGGGAGGG | 1.04 ± 0.011
61 | AACGGGCTAG | 0.999 ± 0.014
62 | AACGGGGAGC | 0.983 ± 0.047
63 | AACGGGGGCC | 1.03 ± 0.066
64 | AACGGGGGGA | 0.979 ± 0.033
65 | AACGGGGTAA | 0.948 ± 0.037
66 | AACGGGTGCG | 0.995 ± 0.02
67 | AACGGTACCG | 0.981 ± 0.014
68 | AACGGTGACG | 1.03 ± 0.072
69 | AACGGTTTTT | 0.972 ± 0.036
70 | AACGTAAATT | 1.33 ± 0.31
71 | AACGTAGTGT | 1.01 ± 0.047
72 | AACGTGACAG | 1.06 ± 0.046
73 | AACGTGGGTA | 1.01 ± 0.026
74 | AACGTGGTTT | 1.01 ± 0.025
75 | AACGTGTGTG | 0.95018 ± 1.6e-05

Row | Sequence | switch fluorescence ratio
76 | AACGTTAGCG | 1.002 ± 0.0045
77 | AACGTTGCCC | 1.01 ± 0.025
78 | AACGTTTTTT | 0.991 ± 0.027
79 | AACTAGGTGT | 1.15 ± 0.22
80 | AACTATATCT | 1.05 ± 0.021
81 | AACTATCTTG | 1 ± 0.0027
82 | AACTATGGTC | 1.01 ± 0.036
83 | AACTCAAGGG | 1.0096 ± 0.00058
84 | AACTCGGTCT | 1.03 ± 0.095
85 | AACTCGTAGG | 0.995 ± 0.018
86 | AACTCGTTCT | 1.01 ± 0.011
87 | AACTCTGAGA | 1.03 ± 0.013
88 | AACTGAAGTG | 0.984 ± 0.023
89 | AACTGCGCTG | 1.01 ± 0.035
90 | AACTGGACTC | 1.14 ± 0.013
91 | AACTGGAGGG | 0.969 ± 0.042
92 | AACTGGGACT | 1.02 ± 0.041
93 | AACTGGGGGC | 1 ± 0.031
94 | AACTGGGGGT | 1.02 ± 0.017
95 | AACTGGTCGC | 1.14 ± 0.07
96 | AACTGTTGGG | 0.9928 ± 0.002
97 | AACTTAACGA | 1.0744 ± 0.00011
98 | AACTTATTTG | 1 ± 0.028
99 | AACTTCTATT | 1.016 ± 0.00089
100 | AACTTGGTGT | 0.983 ± 0.016

Reference: the supplement of paper PMC10126150
